Consider 20 sequences from the DeepSol protein solubility set.

The data set in a line: soluble on expression in E. coli; label from the status in PepcDB or PDB records.
Take “MSLTEAPRVRLVGAEIFERPVEFRFPFRFGAARVTNAPQAFVRVRVEDASGRSTIGRSAEMMMPKWFDKNPSLSPEDNVGQLRASLRLAAEGLKSLQAETAFGLHVAAETEHHQAAATHGLPPLVASYGLALLDRAILDAVCRMMGACAAEAVRNNLLGVSGVAAPDLAGFDLTRFLSRLNVSSRLAVRHTIGLADVLTVADLGAMQRPADGLPQTLEDVIAAYGHRYFKIKVSGRPAEDIERLVAIAAILDDRVGDYRATLDGNEQFENIDLVCDLLDRIEEEPRLKRLRASMLFFEQPIARAEALSKPVVAAAQRMPLEIDESDGDMGAFLRARELGYAGISSKSCKGFYRALINRARVEKWNAEAGSSHYFMSAEDLTTQAGLALQQDLVLASLVGAGHVERNGHHYVDGMAGAPEGEQLAYLSHHGDLYEGAAGQTRLAIQAGEITFATALRSVGLGSSVDPDWAAMRPVSEGHHHHHH”: the “soluble on expression in E. coli” value is listed as “not soluble”.

For the sequence “MQEAVLQLIEVQLAQEEVTESPLGGDENAQLHASGYYALFVDTVPDDVKRLYTEAATSDFAALAQTAHRLKGVFAMLNLVPGKQLCETLEHLIREKDVPGIEKYISDIDSYVKSLL”, the “soluble on expression in E. coli” value is given as “soluble”.

As for “MAHHHHHHMKLQKQQQQKRMTGLKEKRIACRLTYIWLSGRDSHHDIRSKDRTAYLTTEEVAKHPKELLADGIFPVWNFDGSSTKQVCGADTEILLNPVNAYHCCLPRLSTTVPWILVLAECCLPNGEPTNDNSRAVARRIFERAPEEHPWFGMEQEFFLIKDGHPYGWPPRGFPAPQGPYYCSTGCLCVHGRRYVDLHYEVCLQMGLNISGTNAEVAPGQWEFQVGPCEGIEMGDQLTVARWVLLRILEDDGLDADYRAKPIRGEWNGSGLHTNFSTASTRNENGLSVIYEYVERLKKTISKDIVLYGAENNERLTGKYETSKPNEVTAGVGTRGTSIRIPNAVAAERKGYMEDRRPAGDADPYLVSARLFASCVCIESPELDLISSFHERSWMKFGDLS”, the “soluble on expression in E. coli” value is listed as “soluble”.

“MEEIPEHEGYKFRVARPRTDFRGTHQYASPNAHMLIELGRHDDIWSLMYMVAESFVELPWTRCEETEVEHYMNQSTILRLFSDEKNPTRLNADMRRQLDEIDSMLKASKYYDSPNYDAVYQFFKDSMAKAKVTWDTPFDWEIGNTLSEETSKGVKRKMGGPWENPGLFFTVLQ”: the “soluble on expression in E. coli” value is given as “not soluble”.

Turning to “SIETTKGGSGSYPIKTIVVLVQENRSFDHTLGWFKELNREIDGVTKSDPKSNTVSSSDTNSLRVVFGDQSQYVNPDPGHSIQDIYEQVFGKPWDSGKPDPNPGHPNMSGFAQNAERNKKGMSSAVMNGFKPNALPVYKELVQNFAICDRWFASVPASTQPNRLYVHSATSHGATSNDKKLLLEGFPQKTIFESLDEAGFSFGIYYQFPPSTLFYRNLRKLKYLTHFHQYGIQFKKDCKEGKLPNYVVVEQRWFDLLSTPANDDHPSHDVSEGQKLVKEVYEALRSSPQWNEILFIITYDEHGGFYDHVPTPVDGVPNPDGILGPPPYNFEFNRLGVRVPTFFISPWIEPGTVIHGPNGPYPRSQYEHSSIPATVKTIFKLKDFLSKRDSWAGTFESVITRDSPRQDCPETLSTPIKLRGTMAKENAQLSEFQEDLVIMAAGLKGDYKNEELIHKLCKETCVADASKYVTNAFEKFLEESRKARDRGCDENDIVYCVDDDDDHVVIPPQSHSEASNAAAQPKTQTSFFNKLFSCFIRHD”, the “soluble on expression in E. coli” value is “soluble”.

Consider “MSQDIFTRDNLLRVENPNILVGESPVKYRVEEIYLDGKLKKAEDVDEEEKSYGIFMHSLVLSNYAEVMNVSHKKLDVIRDEKEKAIFYFTEEKGFDKSLIESIVPKVEAFSLNEDKLKVSTHIINEKMRIISRGTPDELLKRCSYILLDSKIVKKTRKIYREINRVLNDMINRCCTVYALAIKDVSKTDIITNVDAYIDGMTLVALIGMCRA”, for which the “soluble on expression in E. coli” value is on record as “soluble”.

“MSAVVITDRHRRILKVNPAFTSISGFSANEVIGKNTFDVLLSESENIDKRLTTWKQVEELGAWQGELDVLSKNKRKLSLLVRIQSVKSKRKATQYYIISYIDITKR”: the “soluble on expression in E. coli” value is “not soluble”.

Take “MEPKRSRLVVCAPEPSHAREFPDVAVFSGGRANASQAERLARAVGRVLADRGVTGGARVRLTMANCADGPTLVQINLQVGDTPLRAQAATAGIDDLRPALIRLDRQIVRASAQWCPRPWPDRPRRRLTTPAEALVTRRKPVVLRRATPLQAIAAMDAMDYDVHLFTDAETGEDAVVYRAGPSGLRLARQHHVFPPGWSRCRAPAGPPVPLIVNSRPTPVLTEAAAVDRAREHGLPFLFFTDQATGRGQLLYSRYDGNLGLITPTGDGVADGLA”: the “soluble on expression in E. coli” value is “soluble”.

Turning to “AIALVSHGAIVKSAPKHWNGSKCPIRMQVRVPDPDRRSLLRAGAHIILGGLLATVIPGTSPSIAKIREKPTDKGEEAPKIDDEKELDKYVSGLKYEEELYENPDPAEKEVYRTPRVEREPEYKKKEDEILEKESKVLKEEAREAARESEVLRQEFEKR”, the “soluble on expression in E. coli” value is given as “soluble”.

For “YSGLHLCESHLCRAVTKRVRRRIREDGLVSDDATVEDPETWVIGLSGGKDSVVLTQILHDTFAEDPRIELVALSIHEGIEGYRDASLEACEELTDDLGIEHVTVSYAEEFGVQMDDVVEDDPEGMAACAYCGVFRRDLLSKYAEELDADKLLTGHNLDDEAETALMNFLEGDISQIAKHFEASLGPFDSSADAPTEQTREAQDHHIPRAKPLRDIPEKEVALYARFEDLPAHITEC”, the “soluble on expression in E. coli” value is reported as “not soluble”.

Turning to “MRRVTTLLVMMLTVLSACQASPKASPTKPGNAMSNNHPQNPYYSRTDTTRLDLPNEVWKKVLSPELYAVARLAETERAFTGKYWNYEGLGTYYCAACGNTLFRSDAKFASTCGWPSFFETVRPGSVAYREDTSFGMVRTEVLCGRCGAHLGHVFDDGPPPTGKRFCMNSICLDFEPDQPETAKPQ”, the “soluble on expression in E. coli” value is listed as “soluble”.

As for “GSHMSSLEKRLGKNEYFIITKSSPVRAILNDFAANYSIPVFISSSVNDDFSGEIKNEKPVKVLEKLSKLYHLTWYYDENILYIYKTNEISRSIITPTYLDIDSLLKYLSDTISVNKNSCNVRKITTFNSIEVRGVPECIKYITSLSESLDKEAQSK”, the “soluble on expression in E. coli” value is “soluble”.

Consider “MTQEEMKHIDPSGNHTISHLCEAWKLSMRYQVKPSTFACYATIIQKHIRPSIGTVEMEEMNNEILSEFILDRQSRGLSANTMRLILFLLKSIIRAGERRGICPAEPLDFFLPKDRGYEMKLLSQDNRRKLLSWLAGCRTNFELGLLLSLSTGIRVGELCGMKWEDVDLEEGVLHIRRTVSRIRNTDQKNTAAKTVLYIGSPKTGTSQREIPLPDFMIPRLKEKKREAGCYLLTGRTGCMEPRGVQRRFKN”, for which the “soluble on expression in E. coli” value was “not soluble”.

Turning to “MSLRSEQEMMDIFLDFALNDERIRLVTLEGSRTNRNIPPDNFQDYDISYFVTDVESFKENDQWLEIFGKRIMMQKPEDMELFPPELGNWFSYIILFEDGNKLDLTLIPIREAEDYFANNDGLVKVLLDKDSFINYKVTPNDRQYWIKRPTAREFDDCCNEFWMVSTYVVKGLARNEILFAIDHLNEIVRPNLLRMMAWHIASQKGYSFSMGKNYKFMKRYLSNKEWEELMSTYSVNGYQEMWKSLFTCYALFRKYSKAVSEGLAYKYPDYDEGITKYTEGIYCSVKEGHHHHHH”, the “soluble on expression in E. coli” value is “soluble”.

As to “SNATGLGELKISDTICAQNAVEALPALSVDEPTVTMTFQVNTSPFAGKEGKFVTSRNILERLEKELVHNVALRVEQTDDPDKFRVSGRGELHLSILIENMRREGFELAVSRPEVIIKEEDGQLMEPFETVTIDVMEEHQGGIMENIGLRKGELKDMAPDGKGRVRMDFIMPSRGLIGFQTEFMTLTSGSGLLYHTFDHYGPHKGGNIGQRVNGVLIANAAGKALTNALFNLQERGRLFIGHGVEVYEGMVIGIHSRDNDLTVNALKGKQLTNVRASGTDDAQVLTPPIVMTLEQALEFIDDDELVEVTPESIRIRKKFLTESDRKRASRSAK”, the “soluble on expression in E. coli” value is “soluble”.

“MSLEDCRISRVELYALADENAPPIPWADNQEPLLYTNNIVRLFTEDGTEGLGATMSYTENFFDRCIIESLRTIVPGLIGKNPLMTQELNNWLGARCTWGGLPAKSPIDIAAWDIKGKKAGMPLYMLLGGARTKIKSYASTPMFDTVEEYFPYIDDCIEHGFTAIKLHCYCVYDKDVALVEAVEAKYGTSGIRFMLDTAGFYTPEQAMKMAKWMERHNWEWLEAPVSDYDFKTYQRLVANTDLEISSHGNCLLTLQEVTHALSTGMWSDVRQDATVCGGITQLNKCFAIAAGHSKNLEIQSMGYTLTQAANLHVALAHDNCNFFEQFYPYEAFELASKTQIRTDKEGYVHAPAGNGLGVEMDWDAVKEASFASYVFEEGHHHHHH”: the “soluble on expression in E. coli” value was “soluble”.

“MGSDKIHHHHHHMNYKELNKIFKETLSLRWDPVAVRMMRPGEEKPAQGIEPTVPLRHCQSIITARRGNCLYMPPRSHACPDGTGVLGLVEMSPKLRSGDLYLLFKKMPNIETARQMISSRPEFKAGSYEATLLAPLEKAAFEPDVVVFTLWPEQAMWLCCAQTYATGERQDFKTSGFNSACADLIVQTMTSGEMNISFGCYGARASSEIDDFELYLAIPTALLEPIAQALLKLSQKSIPEERKKIYLHPVMDKVGSRRAQSQGEGARVELFVDTERCMGDGLCVDFCPSGVLAMVEAGDRKVAQALHPDACSACYTCVGQCPQQAIQLSYN”: the “soluble on expression in E. coli” value is on record as “not soluble”.

Turning to “MEPIWRNYPYPTYPGHHNFQFDPLLSDGSHTGVNQLGGVFVNGRPLADTVRAQIVEMSQHGTRPCDISRQLKVSHGCVSKILGRYYSTGSVRPGVIGGSKPKVATPRVVECIAGYKRANPTMFAWEIRQKLIEDQICGEENVPSVSSINRIVRNKSFMAQLAAPTSVTSSAARPSSATSHHQRSPPRGVQQHMQQSTSVQQLQQLQLTSAATVNSLMTPPAFAMPGTAYSINGLLGTLPQPSLLDDKFTNLSTQSADMSLVYSTGLVGEHDWTMRTPMVILPQNYCGQL”, the “soluble on expression in E. coli” value was “not soluble”.

“MAGDPMKKTILLTMTTLTLFSMSPNSAQAYTNDSKTLEEAKKAHPNAQFKVNKDTGAYTYTYDKNNTPNNNHQNQSRTNDNHQHANQRDLNNNQYHSSLSGQYTHINDAIDSHTPPQTSPSNPLTPAIPNVEDNDDELNNAFSKDNKGLITGIDLDELYDELQIAEFNDKAKTADGKPLALGNGKIIDQPLITSKNNLYTAGQCTWYVFDKRAKDGHTISTFWGDAKNWAGQASSNGFKVDRHPTRGSILQTVNGPFGHVAYVEKVNIDGSILISEMNWIGEYIVSSRTISASEVSSYNYIHLEHHHHHH”: the “soluble on expression in E. coli” value is “not soluble”.

“SSMLPSFGFTQEQVACVCEVLQQGGNLERLGRFLWSLPACDHLHKNESVLKAKAVVAFHRGNFRELYKILESHQFSPHNHPKLQQLWLKAHYVEAEKLCGRPLGAVGKYRVRRKFPLPRTIWDGEETSYCFKEKSRGVLREWYAHNPYPSPREKRELAEATGLTTTQVSNWFKNRRQRDRAAEAKERENTENNNSSSNKQNQLSPLEGGKPLMSSSEEEFSPPQSPDQNSVLLLQGNMGHARSSNYSLPGLTASQPSHGLQTHQHQLQDSLLGPLTSSLVDLGS”: the “soluble on expression in E. coli” value was “soluble”.
